Reference: patent US20210292396A1

Columns and labels:
[1] = biological target: HIV Env of the 106-virus cross-clade panel (Table 5); assay: cell-based or functional assay
[2] = biological target: HIV Env of the 113-member cross-clade virus panel (Table 6); assay: cell-based or functional assay

| Binder | % Breadth [1] | Median IC50 [1] | breadth of neutralization at an IC80 of 0.01 microg/ml [1] | median IC80, 106-virus panel [1] | neutralization breadth (IC80), 106-virus panel [1] | Breadth [2] | GeoMean [2] |
| --- | --- | --- | --- | --- | --- | --- | --- |
| ePGT121.15.H1.L1 (antibody, V domains shown) VH: QMQLQESGPGLVKPGETLSLTCSVSGASISSSYWSWLRETPGKGLEWIGYTHHSGDTNYAPSLKSRVHLGLHPSKNQVSLSLTSVTAADTAVYYCARTLHGRRIYGVVAFNEWFTYFYWEVWGNGTQVTVSS VL: SDISVAPGETVRISCGGESIGSRAVQWYQHRAGQAPKLIIYNNQDRPPGIPERFSGSPDIDFGTTATLTITNVEAGDEATYYCHIWDSRRPTNWVFGGGTTLTVL | 75% | 1 ng/mL | 50% | 9.3 ng/mL | 69% | 76% | 0.0061 |
| ePGT121.15.H6.L1 (antibody, V domains shown) VH: QMQLQESGPGLVKPGETLSLTCSVSGASISSSYWSWLRETPGKGLEWIGYTHHSGDTNYAPSLKSRVHLGLHPSKNQVSLSLTSVTAADTAVYYCARTLHGRRIYGVVAFNEFFTYFYWEVWGKGTQVTVSS VL: SDISVAPGETVRISCGGESIGSRAVQWYQHRAGQAPKLIIYNNQDRPPGIPERFSGSPDIDFGTTATLTITNVEAGDEATYYCHIWDSRRPTNWVFGGGTTLTVL | – | – | – | – | – | 77% | 0.0048 |
